{"source": "patent US20070286806A1", "about": "“Methods and Compositions for Modulating a Steroid Receptor” (Mount Sinai Hospital, priority 2004, published 2007)", "molecules": {"B1": {"name": "polypyrimidine tract binding protein-associated splicing factor (protein)", "chain": "MSRDRFRSRGGGGGGFHRRGGGGGRGGLHDFRSPPPGMGLNQNRGPMGPGPGQSGPKPPIPPPPPHQQQQQPPPQQPPPQQPPPHQPPPHPQPHQQQQPPPPPQDSSKPVVAQGPGPAPGVGSAPPASSSAPPATPPTSGAPPGSGPGPTPTPPPAVTSAPPGAPPPTPPSSGVPTTPPQAGGPPPPPAAVPGPGPGPKQGPGPGGPKGGKMPGGPKPGGGPGLSTPGGHPKPPHRGGGEPRGGRQHHPPYHQQHHQGPPPGGPGGRSEEKISDSEGFKANLSLLRRPGEKTYTQRCRLFVGNLPADITEDEFKRLFAKYGEPGEVFINKGKGFGFIKLESRALAEIAKAELDDTPMRGRQLRVRFATHAAALSVRNLSPYVSNELLEEAFSQFGPIERAVVIVDDRGRSTGKGIVEFASKPAARKAFERCSEGVFLLTTTPRPVIVEPLEQLDDEDGLPEKLAQKNPMYQKERETPPRFAQHGTFEYEYSQRWKSLDEMEKQQREQVEKNMKDAKDKLESEMEDAYHEHQANLLRQDLMRRQEELRRMEELHNQEMQKRKEMQLRQEEERRRREEEMMIRQREMEEQMRRQREESYSRMGYMDPRERDMRMGGGGAMNMGDPYGSGGQKFPPLGGGGGIGYEANPGVPPATMSGSMMGSDMRTERFGQGGAGPVGGQGPRGMGPGTPAGYGRGREEYEGPNKKPRF", "notes": "expressed from transfected His-PSF vector or in vitro translated"}}, "target": "T1, ERα (Homo sapiens, UniProt P03372)", "T1 construct": "expressed in transfected cells; host or cells: SHM (Syrian hamster myocyte) cells", "T1 sequence (P03372 1-595)": "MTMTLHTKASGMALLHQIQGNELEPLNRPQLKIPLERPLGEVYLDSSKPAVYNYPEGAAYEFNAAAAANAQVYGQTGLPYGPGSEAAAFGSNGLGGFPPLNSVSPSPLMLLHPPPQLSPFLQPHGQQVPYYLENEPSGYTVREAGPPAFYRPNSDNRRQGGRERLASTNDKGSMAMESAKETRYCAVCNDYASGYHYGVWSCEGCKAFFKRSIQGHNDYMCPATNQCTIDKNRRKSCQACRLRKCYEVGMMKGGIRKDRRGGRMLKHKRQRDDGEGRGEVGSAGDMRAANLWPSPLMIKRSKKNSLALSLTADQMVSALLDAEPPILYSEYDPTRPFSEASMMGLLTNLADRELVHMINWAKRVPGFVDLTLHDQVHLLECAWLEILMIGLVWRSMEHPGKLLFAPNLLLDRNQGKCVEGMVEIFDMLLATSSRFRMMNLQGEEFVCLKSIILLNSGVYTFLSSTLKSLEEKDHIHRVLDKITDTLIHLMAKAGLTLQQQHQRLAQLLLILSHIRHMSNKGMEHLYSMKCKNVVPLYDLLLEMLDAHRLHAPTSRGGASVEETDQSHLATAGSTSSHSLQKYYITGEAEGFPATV", "assay": "ERα transactivation, 3xERE luciferase reporter in SHM cells", "format": "cell-based", "conditions": "3xERE promoter", "protocol": "FIG. 4. PSF inhibit transactivation of PR but not estrogen receptor (ER). (A) SHM cells were transient cotransfected with PRA or PRB expression vectors with or without increasing dose (0.05, 0.1 and 0.2 μg) of His-PSF, together with 3×PRE (upper) or MMTV (lower) luciferase reporter vector. Four hours after transfection, culture medium was replaced with fresh DMEM containing 10 nM progesterone and the incubation continued for at least 30 hours. (B) SHM cells were transiently cotransfected with ERα or ERβ expression vector with (0.2 μg) or without His-PSF, together with 3×ERE luciferase reporter vector. Four hours after transfection, culture medium was replaced with fresh DMEM with (solid bar) or without (empty bar) 10 nM estrodial and incubation continued for at least 30 hours. Luciferase activity was measured and normalized by β-galatosidase activity. […]\nFor immunoprecipitation of the endogenous PR and PSF, T47D cells cultured in 150 mm dishes were lysed in 800 μl NETN buffer containing 150 mM NaCl plus protease inhibitor cocktail. […] Gels were treated with Enhancer (NEN, Boston, US) dried and analyzed by autoradiography. • Cell culture and transient transfection: SHM cells and 293T cells were maintained in DMEM plus 5% FCS (Sigma) as described before (22). […] Luciferase activity was determined by using the luciferin reagent (Promega) according to manufacture's protocol. […]", "data": [{"molecule": "B1", "values": [{"measurement": "inhibitory effects on ERα", "result": "not observed"}]}]}
